{"source": "patent US20050037969A1", "about": "(ARBOR VITA, published 2005)", "test_in_all_cases": "A/G plate assays, Table 2 matrix", "key": {"[1]": {"molecular_target": "T1, GST-mouse syntenin fusion protein (Mus musculus, UniProt O08992 108-286)", "T1 construct": "also called Mus musculus Syntenin; not shown: glutathione S-transferase encoded by vector pGEX-3X (Pharmacia)", "T1 chain": "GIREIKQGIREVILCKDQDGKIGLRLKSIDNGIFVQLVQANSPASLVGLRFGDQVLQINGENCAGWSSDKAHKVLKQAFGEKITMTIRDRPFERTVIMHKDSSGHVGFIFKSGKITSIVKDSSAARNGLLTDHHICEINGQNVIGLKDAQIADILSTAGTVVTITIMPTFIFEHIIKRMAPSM"}, "[2]": {"molecular_target": "T2, GST-DVL1 PDZ domain fusion protein (human, UniProt O14640 247-339)", "T2 construct": "also called human dishevelled segment polarity protein homolog; not shown: glutathione S-transferase encoded by vector pGEX-3X (Pharmacia)", "T2 sequence": "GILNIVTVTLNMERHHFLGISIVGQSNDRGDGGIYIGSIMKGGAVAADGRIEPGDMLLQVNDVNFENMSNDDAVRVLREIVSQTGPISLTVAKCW"}, "[3]": {"molecular_target": "T3, GST-cytohesin binding protein PDZ domain fusion protein (Homo sapiens (Human), UniProt O60759 74-165)", "T3 construct": "also called CBP; not shown: glutathione S-transferase encoded by vector pGEX-3X (Pharmacia)", "T3 sequence": "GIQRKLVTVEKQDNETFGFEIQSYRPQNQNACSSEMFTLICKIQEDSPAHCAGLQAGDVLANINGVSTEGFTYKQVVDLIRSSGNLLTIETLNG"}, "[4]": {"molecular_target": "T4, GST-DLG5 (p-dlg) PDZ domain fusion protein (Human, UniProt Q8TDM6 1343-1583)", "T4 construct": "also called Human discs large protein p-dlg; not shown: glutathione S-transferase encoded by vector pGEX-3X (Pharmacia)", "T4 sequence": "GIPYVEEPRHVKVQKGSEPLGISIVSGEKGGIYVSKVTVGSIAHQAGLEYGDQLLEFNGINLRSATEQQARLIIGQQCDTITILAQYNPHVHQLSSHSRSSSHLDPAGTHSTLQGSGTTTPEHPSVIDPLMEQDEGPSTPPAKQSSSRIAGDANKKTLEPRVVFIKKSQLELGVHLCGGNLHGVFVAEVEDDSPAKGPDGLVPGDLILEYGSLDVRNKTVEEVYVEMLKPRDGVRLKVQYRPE"}, "[5]": {"molecular_target": "T5, GST-TAX-IP43 PDZ domain fusion protein (human, UniProt Q13884 109-180)", "T5 construct": "also called TAX43; not shown: glutathione S-transferase encoded by vector pGEX-3X (Pharmacia)", "T5 sequence": "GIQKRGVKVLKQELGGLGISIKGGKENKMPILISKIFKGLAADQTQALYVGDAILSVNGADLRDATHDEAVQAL"}}, "note": "Ends that are not written are not given here. * marks the point of attachment. Biotin = O=C1N[C@H]2[C@H](CS[C@H]2CCCCC(=O)*)N1"}
{"binder": "Biotin-QFMTADETRNLQNVDMKIGV (also called CD44 (long form))", "note": "[CD44 C-terminal peptide AA9L, biotinylated]", "values": [{"measurement": "binding result", "setting": "[1]", "result": "binds"}]}
{"binder": "Biotin-TTNNNPNSAVNIKKIFTDV", "note": "[KV1.3 C-terminal peptide AA33L, biotinylated]", "values": [{"measurement": "binding result", "setting": "[2]", "result": "binds"}]}
{"binder": "Biotin-SFPPCGHRENVPGQSLVSFV (Marked (S), sticky; also called Spectrin beta (S); Spectrin β)", "note": "[Spectrin (beta) C-terminal peptide AA32L, biotinylated]", "values": [{"measurement": "binding result", "setting": "[3]", "result": "binds"}, {"measurement": "binding result", "setting": "[4]", "result": "binds"}, {"measurement": "binding result", "setting": "[5]", "result": "binds"}]}
